Source: US20200399343A1

Key:
[1] = molecular target: major histocompatibility complex (MHC) Class I
[2] = molecular target: major histocompatibility complex (MHC) Class I; remark: listed apart in the source

Chain of K5 (P90489 whole entry): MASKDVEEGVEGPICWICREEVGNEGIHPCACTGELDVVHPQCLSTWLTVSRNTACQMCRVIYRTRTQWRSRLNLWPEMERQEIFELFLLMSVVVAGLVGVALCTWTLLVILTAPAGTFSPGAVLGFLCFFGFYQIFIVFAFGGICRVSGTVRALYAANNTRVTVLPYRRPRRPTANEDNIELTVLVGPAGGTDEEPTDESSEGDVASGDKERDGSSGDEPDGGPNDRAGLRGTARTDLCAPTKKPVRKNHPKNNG
Chain of K3 (P90495 whole entry): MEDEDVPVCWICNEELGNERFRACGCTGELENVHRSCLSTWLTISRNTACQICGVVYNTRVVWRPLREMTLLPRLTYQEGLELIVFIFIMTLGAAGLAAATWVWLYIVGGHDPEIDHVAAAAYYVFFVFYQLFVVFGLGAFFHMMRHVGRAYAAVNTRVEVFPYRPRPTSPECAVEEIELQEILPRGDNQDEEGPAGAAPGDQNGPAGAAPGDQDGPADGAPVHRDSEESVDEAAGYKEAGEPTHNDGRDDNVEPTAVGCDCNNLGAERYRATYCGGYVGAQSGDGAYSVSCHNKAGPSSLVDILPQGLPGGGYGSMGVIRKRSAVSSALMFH
Chain of US3 (P09712 21-186 limits assumed): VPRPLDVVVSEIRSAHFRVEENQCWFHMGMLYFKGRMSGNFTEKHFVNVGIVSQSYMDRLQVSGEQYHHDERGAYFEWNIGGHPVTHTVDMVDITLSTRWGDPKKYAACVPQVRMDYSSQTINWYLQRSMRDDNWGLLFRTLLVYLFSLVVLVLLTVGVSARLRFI

Row | Molecule | MHC Class I expression (MFI HLA A/B/C) on transduced Jurkat cells (MFI HLA A/B/C) [1] | MHC Class I expression (MFI HLA A/B/C) on transduced primary T cells (MFI HLA A/B/C) [2]
1 | K3 | 2170 | 10900
2 | K5 | 661 | 4480
3 | US3 | 5320 | 13000
4 | US2 (protein) MNNLWKAWVGLWTSMGPLIRLPDGITKAGEDALRPWKSTAKHPWFQIEDNRCYIDNGKLFARGSIVGNMSRFVFDPKADYGGVGENLYVHADDVEFVPGESLKWNVRNLDVMPIFETLALRLVLQGDVIWLRCVPELRVDYTSSAYMWNMQYGMVRKSYTHVAWTIVFYSINITLLVLFIVYVTVDCNLSMMWMRFFVC | 6080 | 14500
5 | US11 (protein) MPELSLTLFDEPPPLVETEPLPPLSDVSEYRVEYSEARCVLRSGGRLEALWTLRGNLSVPTPTPRVYYQTLEGYADRVPTPVEDVSESLVAKRYWLRDYRVPQRTKLVLFYFSPCHQCQTYYVECEPRCLVPWVPLWSSLEDIERLLFEDRRLMAYYALTIKSAQYTLMMVAVIQVFWGLYVKGWLHRHFPWMFSDQW | 8080 | 14600
6 | E19 (protein) TTQKVDFKEPACNVTFAAEANECTTLIKCTTEHEKLLIRHKNKIGKYAVYAIWQPGDTTEYNVTVFQGKSHKTFMYTFPFYEMCDITMYMSKQYKLWPPQNCVENTGTFCCTAMLITVLALVCTLLYIKYKSRRSFIEEKKMP | 3430 | 14800
7 | ICP47 (protein) MSWALEMADTFLDTMRVGPRTYADVRDEINKRGREDREAARTAVHDPERPLLRSPGLLPEIAPNASLGVAHRRTGGTVTDSPRNPVTR | 2060 | 5940
8 | US6 (protein) ERSSRDPKTLLSLSPRQQACVPRTKSHRPVCYNDTGDCTDADDSWKQLGEDFAHQCLQAAKKRPKTHKSRPNDRNLEGRLTCQRVRRLLPCDLDIHPSHRLLTLMNNCVCDGAVWNAFRLIERHGFFAVTLYLCCGITLLVVILALLCSITYESTGRGIRR | 1720 | 9500
